From PMC7209288

Tests used:
human C5 = assay: SPR; fit not_stated; antibody as IgG; antigen as monomer; on the surface: not_stated; avidity not_told; details: pH 7.4; second pH 6.0
[1] = molecular target: Complement component C5 (human, wild type) (UniProt P01031); assay: SPR (Biacore); details: for t1/2 ratio pH7.4/pH6.0: pH 6.0-7.4, not stated (pH 7.4 and pH 6.0 compared); for KD / T1/2 (half-life of the complex): pH 7.4, 25 °C, not stated for this experiment (the 37 °C screen used 150 mM NaCl), not stated explicitly for the 25 °C runs, pH 7.4 (the 37 °C screen used HBS-EP: 10 mM Hepes)
[2] = molecular target: Complement component C5 (human, wild type) (UniProt P01031); assay: SPR (Biacore T200, CM4 chip); details: pH 7.4, 37 °C, 150 mM NaCl, HBS-EP: 10 mM Hepes

Chain of UniProt P01031 (P01031 whole entry): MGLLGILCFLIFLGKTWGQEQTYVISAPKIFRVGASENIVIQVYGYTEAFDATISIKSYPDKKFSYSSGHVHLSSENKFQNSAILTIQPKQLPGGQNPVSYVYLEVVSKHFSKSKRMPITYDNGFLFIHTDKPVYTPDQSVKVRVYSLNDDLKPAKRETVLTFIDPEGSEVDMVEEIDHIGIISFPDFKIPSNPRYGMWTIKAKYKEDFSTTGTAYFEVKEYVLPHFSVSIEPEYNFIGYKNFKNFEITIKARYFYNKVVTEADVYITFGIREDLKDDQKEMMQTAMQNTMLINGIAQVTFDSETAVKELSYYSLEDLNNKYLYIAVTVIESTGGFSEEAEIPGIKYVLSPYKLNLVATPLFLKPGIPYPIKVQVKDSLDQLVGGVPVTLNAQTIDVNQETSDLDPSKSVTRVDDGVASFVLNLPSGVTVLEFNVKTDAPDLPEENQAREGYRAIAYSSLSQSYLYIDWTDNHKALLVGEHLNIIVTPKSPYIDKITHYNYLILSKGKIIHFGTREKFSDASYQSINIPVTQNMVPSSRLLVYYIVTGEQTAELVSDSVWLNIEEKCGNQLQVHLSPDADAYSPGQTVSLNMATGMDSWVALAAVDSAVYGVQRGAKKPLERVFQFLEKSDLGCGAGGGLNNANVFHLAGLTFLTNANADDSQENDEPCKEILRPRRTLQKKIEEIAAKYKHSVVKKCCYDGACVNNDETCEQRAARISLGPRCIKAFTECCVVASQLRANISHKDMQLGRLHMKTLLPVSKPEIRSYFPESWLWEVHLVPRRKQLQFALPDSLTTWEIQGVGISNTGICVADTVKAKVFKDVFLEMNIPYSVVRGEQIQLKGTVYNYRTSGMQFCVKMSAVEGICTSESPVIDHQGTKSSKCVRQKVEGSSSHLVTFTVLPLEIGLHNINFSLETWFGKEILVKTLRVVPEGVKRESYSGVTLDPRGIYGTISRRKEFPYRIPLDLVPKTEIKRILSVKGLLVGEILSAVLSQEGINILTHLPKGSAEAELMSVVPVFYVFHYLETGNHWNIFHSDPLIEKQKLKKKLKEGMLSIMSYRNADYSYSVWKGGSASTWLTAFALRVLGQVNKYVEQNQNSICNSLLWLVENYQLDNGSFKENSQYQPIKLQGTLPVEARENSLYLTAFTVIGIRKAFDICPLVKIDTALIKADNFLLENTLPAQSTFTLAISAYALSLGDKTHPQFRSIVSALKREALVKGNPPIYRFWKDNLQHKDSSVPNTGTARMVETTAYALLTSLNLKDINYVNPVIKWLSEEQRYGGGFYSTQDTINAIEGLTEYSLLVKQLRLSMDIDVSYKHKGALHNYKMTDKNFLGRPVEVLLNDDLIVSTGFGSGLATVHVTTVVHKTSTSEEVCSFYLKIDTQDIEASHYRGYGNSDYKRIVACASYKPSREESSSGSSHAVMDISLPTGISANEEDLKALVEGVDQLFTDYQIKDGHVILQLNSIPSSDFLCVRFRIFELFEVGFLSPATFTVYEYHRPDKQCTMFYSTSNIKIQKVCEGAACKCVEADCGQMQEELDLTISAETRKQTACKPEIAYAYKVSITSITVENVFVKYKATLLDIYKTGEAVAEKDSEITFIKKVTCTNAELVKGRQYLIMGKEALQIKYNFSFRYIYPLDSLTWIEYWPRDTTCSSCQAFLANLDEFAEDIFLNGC

Substance	t1/2 ratio of binding hC5 at pH7.4/pH6.0 (human C5)	t1/2 ratio pH7.4/pH6.0 [1]	KD [1]	T1/2 (half-life of the complex) [1]	KD [2]	T1/2 (half-life of the complex) [2]
In-house eculizumab	5.2					
In-house eculizumab, anti-human C5 monoclonal antibody		t1/2 ratio of binding hC5 at pH7.4/pH6.0 = 5.2	301 pM	1.72 h		
REGN3918	3.8					
REGN3918 (pozelimab), anti-human C5 monoclonal antibody S228P (EU numbering, IgG4 hinge)		t1/2 ratio of binding hC5 at pH7.4/pH6.0 = 3.8	189 pM	1.03 h	262 pM	0.833 h
